# Tested on: K4 kissing-loop RNA reporter
# Assay: apparent KD of K4 kissing-loop reporter; higher = weaker reporter binding
# Conditions: Eterna round: R107; input ligand: none
# Method: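 RNA-MaP round R107: designed RNA switches with theophylline, tryptophan, arginine or FMN aptamers are transcribed on-chip within common flanks. They are titrated with a labelled K4 kissing-loop RNA reporter in RNA-MaP buffer (100 mM Tris pH 7.5, 80 mM KCl, 4 mM MgCl2), without ligand or with the indicated ligand. Median apparent KD per design.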
# 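Note: bound reporter read as fluorescence of individual clusters on recovered sequencing chips by microscopy, with normalized cluster intensities fitted with a binding model.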
row,Sequence,apparent KD of K4 kissing-loop reporter
1,CGUUUAUAGCAGGAUACCAGUACCCAUAAAGUACGUUAAUAGUAGAGUGAUGUUCUAAAGUACCCUUGGCAGCUUCCCGUGACCG [ExTheophylB.V],129 nM
2,CGAAGACUUAUGGAUACCAGCCUAGCAUCAGGUGGUUCAGAGGCAUGCAGUGAUGUUGCAGGCCCUUGGCAGCCAUGGUACUAGA [Xelebi],70 nM
3,AAGUGUGUGGCGGCCGCCACUAGUAUCCAGUGAUGUUGGAGAUAUCACGUAAGUGAUAUCCAACAUAGGACCGGGCCAUAUAGAA [Same State - Tryptophan B (Freestyle 17)],101 nM
4,GCGCGCGGCGGAGGAUAUAGCAGGUGAUCCAAGAAAGUGAGUGAUGUUUAUGGAGAUGAUGAUAUGUUAGAAGGCCGCCGCGCGC [abcdefghijklmnopqrstu],626 nM
5,CGUUUAUAGCAGGAUACCAGUACCCAUAAAGUACGUUAAUAGUAGAGUGAUGUUCUAAAGUACCCUUGGCAGCUUCGAGUGAGUG [ExTheophylB.R],85.1 nM
6,GGACCUCAGUGAUGUUGAGGUAACGCUGAUACCAGUGACUUAAUUCGCCCUUGGCAGCAGUCCACCGAGGUAUCUGAUUAGGUCU [Default title],149 nM
7,AAAAUAAACUAGUGAUGUUGGUGUCCAGAUACCAGCGACGAAAGUCGCCCUUGGCAGCUGUGGACGUACAAAAUAAGUACGUCCU [MatMod 21 - Jieux - Same State - Theophylline A],345 nM
8,AAAAUUGCGGUCGAAAGAACUUCUUGCAUACGAGGACCGGUACGGCCGCCACUCGAGUCAAGUGAUGUUUGAUAAUCUAUUAUUA [JR_ExcTryptoA_Sub012],215 nM
9,UUUAUUUUCUGAGGAUAUCGUUUUACUGAAGUGAUGUUUCAGUAUUUUCAUAUUAUAUAUAAUUUUCGAGAAGGCAGUAUUAUUA [JR_Nu_SSFMNB_Sub027],63.7 nM
10,UAUUUAGUGACGGCCGCCACUAUUGUGAUUUAAUUGUUUGAGUGAUGUUUUGAUGUUUGAUUUUGUAGGACCGGGUUAUGUGUUA [tyttmullin],827 nM
11,UGGAGUUGACGAAAAGUCAACUCCAGAGAAGGAGCGGACGAAAGUCCAGGUAGGUCGCUCACUACCAGUGAUGUUGGUACUUAAA,170 nM
12,CAUAGGAAACUAUGUUUCUCUCUUACUGAAGGAGCGCGUGAAAACGCAGGUAGGUCGCAGAAUUUGAGAGUGAUGUUCUCAUUAA [Ex Arginine A K4 14],175 nM
13,AAUAAAAUCACGGCCGCCACUGAUUAUUUUAUUAGGAGUGAUGUUCCUAUGACAGUAUGCCUUAACAGGACCGGGUGAAUAUUUA [#19 K4 Tryptophan B Exclusion],144 nM
14,GCGUAGGAAGAAGGAUAUCACAGGAUGCCACGUUAGUGAUGUUAAUUUGGUUCAGCGCGAUUCUGAUGAGAAGGUCUUUUAUGAU [theeternabot_sameState_KL_FMN_B_47],295 nM
15,GUGGUGGUGGCGGCCGCCACUGAAGAUAAUGAGUGAUGUUCAAGUGAUGUUAAUAAGAACAGUAUCAGGACCGGGCCACCACCAC [Default title],34.1 nM
16,CUCACGCUCACAGAUACCAGUGGUGAUCCGGAUUGUAGUGAUGUUAAUUCCGCCAUCAUACACCCUUGGCAGCUGGCGUCACCUU [theeternabot_sameState_KL_Theo_B_31],654 nM
17,GGUGUGCCAAGUGAUGUUUGGCGUUCUCACCGAGGACCGGUACGGCCGCCACUCGUUAACUGACCAAGUAUCUUUACCUCGGAGA [theeternabot_sameState_KL_Trp_A_8],159 nM
18,CUGUACAUCUCGGCCGCCACUGACCUAAGUGAUGUUAGGAAUGAAACCUAGUGAUGUUAGCAAACCAGGACCGGGAGGUGUGCAG [KL-SSTryp-B4 #Double Kiss],83.2 nM
19,GUCUCGAGUGAUGUUCGGGUCGUUUGGGAAGGAGCGCCCGGAAGGGCAGGUAGGUCGCCCGGACCGCGCGGGCAACCGCGCGGCC [#2 Same State - Arginine A Attempt #12 (HarryS)],217 nM
20,UGACUGGAUGGAAGGAGCGCUAAACUCCUAGUGAUGUUAGGGACACGAGACAAAGUCUCGAAGCAGGUAGGUCGCCAUCUAGUCU [FiskerMod 13 - Jieux - Same State - Arginine B],160 nM
21,ACGGAUACGCGAGAUACCAGAGGCAUUCGCCAGCGACCAUAAUGUCCCGAGAGUGAUGUUCUCCCUUGGCAGCUCAUGGUUAAUU [theeternabot_exclusion_KL_Theo_B_2],468 nM

# Same assay, conditions: Eterna round: R107; input ligand: theophylline 20 uM
row,Sequence,apparent KD of K4 kissing-loop reporter
1,GCGUCACGUCGGGAUACCAGAGAAAUGGCAUUAGCCAAUGACGAGUGAUGUUCGUAGGCGCUCCCUUGGCAGCCCACCGGGAGGA [theeternabot_sameState_KL_Theo_B_21],340 nM
2,GCCGUAGAUUGAAGGAGCGGUGAAUGCAGGUGAGUCCUUUAGAUGUUUAGUGAUGUUAAACACCAGGUAGGUCGCAAUCUACGGC,200 nM
3,GGUAGCUAGGCAGGAUAUAGCUAGUGGAGUGAUGUUCCACCAUACACGAGUGAUGUUCGUAACCUGCUAGAAGGGCCUAGCUACC,135 nM
4,GGCGGCCGCGCGCAAGCGCGGCCGGCCGAUACCAGCGCGACGGCGCGCCCUUGGCAGCGGCGCCGAGUGAUGUUCGGCCUGCCGG [#2 Same State - Theophylline A Attempt #16 (HarryS)],454 nM
5,UUUUUUAGUUGAGUUAUACAUAGCGGACUAUAGGAUAUCUAGAAAUAGAGAAGGAUAAGAGUGAUGUUCUUAUUCAACUAUAGUG,109 nM
6,GGACAACUAUGUCCCAUACAAACAAGAGAUACCAGCCAUCAUAGAGGCCCUUGGCAGCUCAUAUAAUCCAGUGAUGUUGGAUUUC [Atgebeus],149 nM
7,AAUGUGCAGGGAAGGAGCGUAGUCCAGUGAUGUUGGAGUUAAAUACCAGUGAUGUUGGUUAUACAGGUAGGUCGCCCUAAAGCGC [Exclusion Arginine B Gf 5],98.3 nM
8,GAACGAGUGAUGUUCGUUAUUAUGCAUUCCGAGGAUAUGGGAUUAGCCAGAAGGCGGAAUCAAUCUUCGAGUGAUGUUCGAAGAU [Same State FMN A GF 11],119 nM
9,ACGCGCGAGACGGCCGCCACUAUACGUCGAGUGAUGUUCGAGCCAAGAUGUCGUUACGUUUAUAAUAGGACCGGGUCAAUGGAUU [theeternabot_sameState_KL_Trp_B_19],661 nM
10,CGUGAGUGCCGACGGUCAUCGGUCCAUGCACGAGGACCGGUACGGCCGCCACUCGAGCGUGGCAGUGAUGUUGCCAGCGCACUAA [Oninvexece],98.5 nM
11,CGGGAAUUAGGUAUCGUCGAAAGCAAGAACCGAGGACCGGUACGGCCGCCACUCGCACCAGUGAUGUUGGUACAUUUGGUAUCCG [theeternabot_sameState_KL_Trp_A_31],103 nM
12,UGAUACCAGACGGCCGCCACUAGGACCGGGAGUGAUGUUCCGAAAAUUAAAUGCUCGGCCGCCACUAGGACCGGGUCUGGUAUCU [TrypBX 28 #DoubleAptamer #SwitchBubble],349 nM
13,AAUUUAUUAACUGAUACCAGACUUAAUAAAUUGUAAAUUACUAGUGAUGUUAGUGAAUUUGUCCCUUGGCAGCAGUAUUUAUUAA [JR_ExcTheophyB_Sub009],141 nM
14,AAAACUCGGUAGUGAUGUUAUUGAGUGAACAAGGAUAUCUAUGAUAAGAGAAGGUGUAAGUUAAGCGUAUUUCGGCCUGUACAAU [theeternabot_sameState_KL_FMN_A_34],106 nM
15,AAAAUUAAGGCCGAAUUAACUUCUUGCAUACGAGGACCGGUACGGCCGCCACUCGAGUCAAGUGAUGUUUGACAAUCUAUUAUUA [JR_ExcTryptoA_Sub010],138 nM
16,UGUCAUUGGUCGGCCGCCACUAGAAGGUCAAAGACCAUAGAGUGAUGUUCUAAGACGAAAGUCACUAGGACCGGGACCGAUGACU [TrypBS 1 #SwitchBubble #K4Middle],946 nM

row,Sequence,apparent KD of K4 kissing-loop reporter
1,AAGUGUGUGGCGGCCGCCACUAGAAUCCAGUGAUGUUGGAGUAAUCAAAUAAAUGAUAAUCAACAUAGGACCGGGCCAUAUAGAA [Same State - Tryptophan B (Freestyle 3)],351 nM
2,UGUACCGAGUCAGGAUAUGGCGUCGAAAGACGAAUUCUAGUGAUGUUAGGGAUCUGCGAAAGCAGUCCAGAAGGGACUUGGUACU [FmnBS 26 U36],692 nM
3,UAACUUGCAGUGAUGUUGCAAGAACUGGAUACCAGCAUGGAAACAUGCCCUUGGCAGCCAGAAGGUAUCCUCUGCAAGAGAUACA [Design1],289 nM
4,GGAUAGGAAAGAGGAUAUGGGCUAGGCAAGAAUAACUUGUCUAGCAAAUCCAUGAGGAGUGAUGUUCCAGAAGGCUUUCCUAUCG [FmnBX 1 A9+U77],157 nM
5,AAACAUUGGUCUGAUACCAGUUAGACCGAUAGGUCAAAACUGGAGUGAUGUUCCUAAAAUAACCCUUGGCAGCAGACCGAUGAAA [MAT - Same State Theophlline B - Mod of Eli - D4],439 nM
6,CGUUUAUAGCAGGAUACCAGUACCCAUAAAGUACGUUAAUAGUAGAGUGAUGUUCUAAAGUACCCUUGGCAGCUUCCCGUGACCG [ExTheophylB.V],142 nM
7,CGAAGACUUAUGGAUACCAGCCUAGCAUCAGGUGGUUCAGAGGCAUGCAGUGAUGUUGCAGGCCCUUGGCAGCCAUGGUACUAGA [Xelebi],79.8 nM
8,AAGUGUGUGGCGGCCGCCACUAGUAUCCAGUGAUGUUGGAGAUAUCACGUAAGUGAUAUCCAACAUAGGACCGGGCCAUAUAGAA [Same State - Tryptophan B (Freestyle 17)],189 nM
9,GCGCGCGGCGGAGGAUAUAGCAGGUGAUCCAAGAAAGUGAGUGAUGUUUAUGGAGAUGAUGAUAUGUUAGAAGGCCGCCGCGCGC [abcdefghijklmnopqrstu],847 nM
10,CGUUUAUAGCAGGAUACCAGUACCCAUAAAGUACGUUAAUAGUAGAGUGAUGUUCUAAAGUACCCUUGGCAGCUUCGAGUGAGUG [ExTheophylB.R],103 nM
11,GGACCUCAGUGAUGUUGAGGUAACGCUGAUACCAGUGACUUAAUUCGCCCUUGGCAGCAGUCCACCGAGGUAUCUGAUUAGGUCU [Default title],155 nM
12,AAAAUAAACUAGUGAUGUUGGUGUCCAGAUACCAGCGACGAAAGUCGCCCUUGGCAGCUGUGGACGUACAAAAUAAGUACGUCCU [MatMod 21 - Jieux - Same State - Theophylline A],198 nM
13,AAAAUUGCGGUCGAAAGAACUUCUUGCAUACGAGGACCGGUACGGCCGCCACUCGAGUCAAGUGAUGUUUGAUAAUCUAUUAUUA [JR_ExcTryptoA_Sub012],296 nM
14,UUUAUUUUCUGAGGAUAUCGUUUUACUGAAGUGAUGUUUCAGUAUUUUCAUAUUAUAUAUAAUUUUCGAGAAGGCAGUAUUAUUA [JR_Nu_SSFMNB_Sub027],72.2 nM
15,UAUUUAGUGACGGCCGCCACUAUUGUGAUUUAAUUGUUUGAGUGAUGUUUUGAUGUUUGAUUUUGUAGGACCGGGUUAUGUGUUA [tyttmullin],791 nM
